According to patent publication US20260232827A1 (Zymeworks, published 2026):

B1: v18992 (MX35), reference anti-NaPi2b antibody (antibody, human IgG1, kappa)
heavy 1: GQVQLVQSGAEVVKPGASVKMSCKASGYTFTGYNIHWVKQAPGQGLEWIGAIYPGNGDTSYKQKFRGRATLTADTSTSTVYMELSSLRSEDSAVYYCARGETARATFAYWGQGTLVTVSSASTKGPSVFPLAPSSKSTSGGTAALGCLVKDYFPEPVTVSWNSGALTSGVHTFPAVLQSSGLYSLSSVVTVPSSSLGTQTYICNVNHKPSNTKVDKKVEPKSCDKTHTCPPCPAPELLGGPSVFLFPPKPKDTLMISRTPEVTCVVVDVSHEDPEVKFNWYVDGVEVHNAKTKPREEQYNSTYRVVSVLTVLHQDWLNGKEYKCKVSNKALPAPIEKTISKAKGQPREPQVYVYPPSRDELTKNQVSLTCLVKGFYPSDIAVEWESNGQPENNYKTTPPVLDSDGSFALVSKLTVDKSRWQQGNVFSCSVMHEALHNHYTQKSLSLSPG
heavy 2: not shown
light: GDIQMTQSPSSLSASVGDRVTITCSASQDIGNFLNWYQQKPGKTVKVLIYYTSSLYSGVPSRFSGSGSGTDYTLTISSLQPEDFATYYCQQYSKLPLTFGQGTKLELKRTVAAPSVFIFPPSDEQLKSGTASVVCLLNNFYPREAKVQWKVDNALQSGNSQESVTEQDSKDSTYSLSSTLTLSKADYEKHKVYACEVTHQGLSSPVTKSFNRGEC
B2: v38591 (humanized anti-NaPi2b antibody, wild-type Fc) (antibody, human IgG1, kappa)
heavy: not shown
light: DVQMTQSPSSLSASVGDRVTITCRASQDVYSYLNWYQQKPGKAVKLLIYYTSRLQSGVPSRFSGSGSGTDYTLTISSLQPEDFATYYCQQYNIFPWTFGQGTKLEIKRTVAAPSVFIFPPSDEQLKSGTASVVCLLNNFYPREAKVQWKVDNALQSGNSQESVTEQDSKDSTYSLSSTLTLSKADYEKHKVYACEVTHQGLSSPVTKSFNRGEC
notes: also called v38591 Wild-type; H1L2
B3: v22277 (palivizumab, anti-RSV negative control, heterodimeric Fc) (antibody, human IgG1, kappa)
heavy 1: GQVTLRESGPALVKPTQTLTLTCTFSGFSLSTSGMSVGWIRQPPGKALEWLADIWWDDKKDYNPSLKSRLTISKDTSKNQVVLKVTNMDPADTATYYCARSMITNWYFDVWGAGTTVTVSSASTKGPSVFPLAPSSKSTSGGTAALGCLVKDYFPEPVTVSWNSGALTSGVHTFPAVLQSSGLYSLSSVVTVPSSSLGTQTYICNVNHKPSNTKVDKKVEPKSCDKTHTCPPCPAPELLGGPSVFLFPPKPKDTLMISRTPEVTCVVVDVSHEDPEVKFNWYVDGVEVHNAKTKPREEQYNSTYRVVSVLTVLHQDWLNGKEYKCKVSNKALPAPIEKTISKAKGQPREPQVYVYPPSRDELTKNQVSLTCLVKGFYPSDIAVEWESNGQPENNYKTTPPVLDSDGSFALVSKLTVDKSRWQQGNVFSCSVMHEALHNHYTQKSLSLSPG
heavy 2: not shown
light: GDIQMTQSPSTLSASVGDRVTITCKSQLSVGYMHWYQQKPGKAPKLLIYDTSKLASGVPSRFSGSGSGTEFTLTISSLQPDDFATYYCFQGSGYPFTFGGGTKLEIKRTVAAPSVFIFPPSDEQLKSGTASVVCLLNNFYPREAKVQWKVDNALQSGNSQESVTEQDSKDSTYSLSSTLTLSKADYEKHKVYACEVTHQGLSSPVTKSFNRGEC
notes: also called neg control
B4: v18993 (lifastuzumab), reference anti-NaPi2b antibody (antibody, human IgG1, kappa)
heavy 1: GEVQLVESGGGLVQPGGSLRLSCAASGFSFSDFAMSWVRQAPGKGLEWVATIGRVAFHTYYPDSMKGRFTISRDNSKNTLYLQMNSLRAEDTAVYYCARHRGFDVGHFDFWGQGTLVTVSSASTKGPSVFPLAPSSKSTSGGTAALGCLVKDYFPEPVTVSWNSGALTSGVHTFPAVLQSSGLYSLSSVVTVPSSSLGTQTYICNVNHKPSNTKVDKKVEPKSCDKTHTCPPCPAPELLGGPSVFLFPPKPKDTLMISRTPEVTCVVVDVSHEDPEVKFNWYVDGVEVHNAKTKPREEQYNSTYRVVSVLTVLHQDWLNGKEYKCKVSNKALPAPIEKTISKAKGQPREPQVYVYPPSRDELTKNQVSLTCLVKGFYPSDIAVEWESNGQPENNYKTTPPVLDSDGSFALVSKLTVDKSRWQQGNVFSCSVMHEALHNHYTQKSLSLSPG
heavy 2: not shown
light: GDIQMTQSPSSLSASVGDRVTITCRSSETLVHSSGNTYLEWYQQKPGKAPKLLIYRVSNRFSGVPSRFSGSGSGTDFTLTISSLQPEDFATYYCFQGSFNPLTFGQGTKVEIKRTVAAPSVFIFPPSDEQLKSGTASVVCLLNNFYPREAKVQWKVDNALQSGNSQESVTEQDSKDSTYSLSSTLTLSKADYEKHKVYACEVTHQGLSSPVTKSFNRGEC

Molecular target: T1, human NaPi2c (human, UniProt Q8N130 1-599)
T1 construct: whole, on cells; also called Hu NaPi2c; SLC34A3
T1 sequence (looked up): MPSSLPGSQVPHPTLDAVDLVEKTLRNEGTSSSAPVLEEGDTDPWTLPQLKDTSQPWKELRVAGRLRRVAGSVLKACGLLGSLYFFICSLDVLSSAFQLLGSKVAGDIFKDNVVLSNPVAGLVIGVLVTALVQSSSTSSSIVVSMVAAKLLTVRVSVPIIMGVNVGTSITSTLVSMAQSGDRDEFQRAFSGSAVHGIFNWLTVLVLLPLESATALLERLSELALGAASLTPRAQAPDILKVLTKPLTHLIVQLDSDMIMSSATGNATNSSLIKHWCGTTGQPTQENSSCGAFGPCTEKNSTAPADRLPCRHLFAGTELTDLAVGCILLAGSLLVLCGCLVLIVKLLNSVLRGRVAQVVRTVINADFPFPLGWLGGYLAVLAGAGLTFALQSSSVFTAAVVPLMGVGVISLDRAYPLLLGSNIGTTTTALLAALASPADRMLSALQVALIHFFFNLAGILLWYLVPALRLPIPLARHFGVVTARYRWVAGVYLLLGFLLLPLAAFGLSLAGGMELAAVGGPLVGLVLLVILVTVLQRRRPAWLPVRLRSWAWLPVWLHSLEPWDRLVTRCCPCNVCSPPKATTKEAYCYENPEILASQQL
Test: flow cytometry on HEK293-6e cells transfected with human NaPi2c, 24 h at 4 C, anti-human IgG Fc AF647

| Binder | binding result |
| --- | --- |
| B1 | no binding (tested: 200 nM) |
| B2 | no binding (tested: 200 nM) |
| B3 | no binding (tested: 200 nM) |
| B4 | no binding (tested: 200 nM) |
